From the supplement of paper PMC9170038

Test system: MS2 coat protein
Assay: apparent KD of MS2 coat protein; designed switch direction (-1 OFF switch, 1 ON switch): -1; higher = weaker reporter binding
Summary of the method: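 On Illumina chips, designed RNA switches with common flanks were made by stalled E. coli RNA polymerase. Titrations with SNAP-549-labelled MS2 coat protein, doubling from 0.7 or 1.5 nM to 3 µM, were done with no input, with 200 uM small-molecule ligand, or with an oligonucleotide input. Apparent KD is the median per design over clusters, from curve fits of normalised cluster fluorescence.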

[1] = Eterna round: R95, input ligand: FMN 200 uM
[2] = Eterna round: R95, input ligand: microRNA oligo, concentration not stated
[3] = Eterna round: R95, input ligand: none
[4] = input ligand: microRNA oligo, concentration not stated

Sequence	apparent KD of MS2 coat protein (input ligand: FMN 200 uM) [nM]	apparent KD of MS2 coat protein (input ligand: none) [nM]	apparent KD of MS2 coat protein [1] [nM]	apparent KD of MS2 coat protein [2] [nM]	apparent KD of MS2 coat protein [3] [nM]	apparent KD of MS2 coat protein [4] [nM]
GCCGAAAAAGUGAGGAUAUACCUAUGGAUACAUAGGUAGAAGGCACAUGAGGAUCACCCAUGUAUCCUAACGGC [Eli bmx4 4.28] (Eterna round: R97, puzzle: Brourd's mod of Exclusion 4)	362	29	–	–	–	–
GCUGGUCGAGGAUAUAUAUGACGUGCUUCGGCACGAAGAUCACAUGAGGAUCACCCAUGUAGAAGGCGACCAGC [E2/8-A1] (Eterna round: R97, puzzle: Exclusion 2)	1480	156	–	–	–	–
AACUAGGCAGGAUAUACAUGAGGAUCACCCAUGUGCCGAUACAAAGGGACUAACAGAGGUAGAAGGGCCUAGAA [ChP 13.04.2015 #1] (puzzle: Exclusion 3)	–	–	100	36.2	47.8	–
UAUACACAUGAGGAUCACCCAUGUGAGGAUAUGUACAACAACAAGACGGAAAAAAAAUACAGAAGGCACAAAUA [JR_Exclusion1_Sub028] (puzzle: Exclusion 1)	–	–	22.7	25.7	32.4	–
CACCGUUACUGAGGAUAUCCUACAUGAGGAUCACCCAUGUAAUAAAUGAGAAUUUCGGAUGUAUUGGAGAAGGCAGAAAUCGGC [Ostricism 62 - Jieux - Exclusion NG 2] (Eterna round: R96, puzzle: Exclusion NG 2)	52.7	58.4	–	–	–	48.4
AAUUCACAUGAGGAUCACCCAUGUCAGGAUAUGGUUUCACGUUUUUCUUUUCUUGAUUCCAGAAGGGACAGCUA (puzzle: Exclusion 1)	–	–	–	58.6	–	–
CCAUAUAACUGAGGAUAUACUCACCACUAACAUGUAGAAGGCAGACAUGAGGAUCACCCAUGUGAUUUCUCAAUAUUAUACAUC [Prohibition 75 - Jieux - Exclusion NG 1] (Eterna round: R96, puzzle: Exclusion NG 1)	–	–	–	–	–	500
ACAAGCUUUUUGCUCGGGUACAUGAGGAUCACCCAUGUUUGUGUUUAUUGAGGUUGUGUUGUCGUGCGCUGCAGGUU [JR_SV3TOV1_Sub077] (puzzle: Sensor v3, turn-off variant 1)	–	–	59.3	38.7	66.5	–
AAUUUACAUGAGGAUCACCCAUGUGAGGAUAUAUACAAAGAAGUGUUAUUAAGAAUGUAUAGAAGGCGCGUGAU [JR_Exc1_Sub039] (Eterna round: R97, puzzle: Exclusion 1)	73.6	62	–	–	–	–
AAAAUGUAAGGAUAUAGCCGGAACCCAGGGUUUGGACCCGGCUAGAAGGUACAUGAGGAUCACCCAUGUAAGAA [Excls4-VII] (puzzle: Exclusion 4)	–	–	–	17.4	–	–
AGGUGUAGAGGAUAUACUGCAAAGCACAUGAGGAUCACCCAUGUCCCUCUAUGGGAUUAUGUAGAAGGCUACACCA [Omei Ex5 C6] (Eterna round: R97, puzzle: Exclusion 5)	17.5	20.2	–	–	–	–
UGUGUGAGACAGGAUAUGCUGGAUGAGAGGCAGGUAGAAGGGUCUACAUGAGGAUCACCCAUGUGGCCGGUUGG [Ex6 #72] (Eterna round: R97, puzzle: Exclusion 6)	26.9	26.3	–	–	–	–
AUAUAACAUGAGGAUCACCCAUGUCAGGAUAUGCAGAACAAGAACAAGACAAGACAGAGCAGAAGGGACAAUAU [Ex 1 M4] (puzzle: Exclusion 1)	–	–	43.8	34.9	48.1	–
UAGGAGUCAGGAUAUGCGAGAGAUGGAAGUAAGGGAUGAGAGCAGAAGGGACAUGAGGAUCACCCAUGUAAGGA [JR_Exclu4_Sub091] (puzzle: Exclusion 4)	–	–	–	37.2	–	–
CCGGAACAUGAGGAUCACCCAUGUCAGGAUAUGAAUAAAUCGUCGAUAGACGAUAAUCUCAGAAGGGACACCGG [Mat - Exclusion 1 - Eli Mod - D27] (Eterna round: R97, puzzle: Exclusion 1)	24.5	24.2	–	–	–	–
AGCAUGGUAGGAUAUACGGAACAUUAGGGUUUGUUAUGUGGACAUGAGGAUCACCCAUGUAGAAGGGCCGUGCA [Mat - Exclusion 2 - Mod of JL - D80] (puzzle: Exclusion 2)	–	–	–	32.3	–	–
GGGCUCGGAGGAUAUACAUGAGGAUCACCCAUGUAGGGCCCGGGUAUUCCCGGGCCCUGUAGAAGGCUGGGUCU [-39, -36.1 kcal, A 19%, 0-7] (Eterna round: R97, puzzle: Exclusion 3)	19.7	16.5	–	–	–	–

Sequence	apparent KD of MS2 coat protein (input ligand: FMN 200 uM) [nM]	apparent KD of MS2 coat protein (input ligand: none) [nM]	apparent KD of MS2 coat protein [1] [nM]	apparent KD of MS2 coat protein [2] [nM]	apparent KD of MS2 coat protein [3] [nM]	apparent KD of MS2 coat protein [4] [nM]
AAUGGUAAAGUCAGGAUAUACGUAAAUCGUACUAGGUAGAAGGGACAUGAGGAUCACCCAUGUAUGAUAGUAAA [Ex4 #31] (Eterna round: R97, puzzle: Brourd's mod of Exclusion 4)	66	76	–	–	–	–
GCCUCACUUGAGGAUCACCCAAGUCAGGAUAUCUACAAGCCGGCCAUGCCAGCUUGCAAGAGAAGGGACUCUAA [Diazale] (Eterna round: R97, puzzle: Exclusion 1)	205	31.6	–	–	–	–
GAGAAAUUAUAGGAUAUCGAAAGGAUAAUUUAACGAGAAGGAUGAACAUGAGGAUCACCCAUGUGGUAUCAUGG [JL-ex6-3.11] (puzzle: Exclusion 6)	–	–	346	302	157	–
GCAAGAAUAGGAUAUACACCAUGUCAGCUUCUAUACAACGCACAUGAGGAUCACCCAUGUAGAAGGGUUCUCUG [Exclusion-2-#10] (Eterna round: R97, puzzle: Exclusion 2)	358	365	–	–	–	–
GCAUGCUAUGUCAGGAUAUACCUGUGGAUACAUAGGUAGAAGGGACAUGAGGAUCACCCAUGUCCUAAUCAUGC [Fiskers BMX 4 - 24] (puzzle: Brourd's mod of Exclusion 4)	–	–	–	12.1	–	–
AGAGUGCUGCGAGGAUAUACAUGAGGAUCACCCAUGUAAACGUGUGAGGCAAAGCCUCACACGAUGUAGAAGGCGCAGUACUCA [Mat - Exclusion NG 2 - Mod of JL - D37] (Eterna round: R96, puzzle: Exclusion NG 2)	19.6	21.5	–	–	–	11.7
UCCUGUUAUGUUAGGAUAUCUGGUUCGACUCGAACAGAGAAGGAACAUGAGGAUCACCCAUGUCCCGGUGAUAA [Eternabot (L2) Solution 19] (Eterna round: R97, puzzle: Brourd's mod of Exclusion 4)	85.6	33.1	–	–	–	–
CGUGGUAGGCAGGAUAUUUUAGACAAUUACUUGAAAGAAGGGCCUACAUGAGGAUCACCCAUGUGCUCUUCUUG [EX6 B.3] (Eterna round: R97, puzzle: Exclusion 6)	16.9	16.8	–	–	–	–
AGUACUAACACGUGUGUGUUAGUACAAUAAGCUUGUGAAACAUGAGGAUCACCCAUGUCCUCAUAAGCUCGUCUUAU [salish99_TOv2_r3_074] (puzzle: Sensor v3, turn-off variant 2)	–	–	16.1	813	15	–
UUUUAACAUGAGGAUCACCCAUGUGAGGAUAUCGAUAUUUAUAUUAAUAUUAAUAAAACGAGAAGGCACAUUUU [JMF 7] (puzzle: Exclusion 1)	–	–	–	65.2	–	–
GAAGAGACAGGAUAUACAUGAGGAUCACCCAUGUGAGGAGGUUGGAAGCGGAGAAGGUGUAGAAGGGUCAAAGA [JR_Exclu3_Sub023] (puzzle: Exclusion 3)	–	–	75.1	37.1	80.7	–
UUGCCACAUGAGGAUCACCCAUGUGAGGAUAUGGCCCGCCCGGCGUGUGCUGGUUUUGUCAGAAGGCGCGUGGG [salish99_ex1_r4_029] (Eterna round: R97, puzzle: Exclusion 1)	52.4	27.9	–	–	–	–
CAACCGAAUCAGUGAAUGCCGACAUGAGGAUCACCCAUGUGUGAGGAUAUUUUAGUAGAGAACUAAAAGAAGGCACCUGGAAAG [Eternabot solution 20] (Eterna round: R96, puzzle: Exclusion NG 3)	70.2	39.8	–	–	–	22.4
AAAUAACAAGCGAGAUCCUACAUGAGGAUCACCCAUGUGCUCGUCUUAAUAAGUACUAUCACGAAAGUGAUAGUACA [Mat - Sensor v3 - turn-off var 1 - Eli Mod - D67] (Eterna round: R96, puzzle: Sensor v3, turn-off variant 1)	15.8	18.2	–	–	–	333
GGAGGACGAGCAGGAUAUUUUUACAUGAGGAUCACCCAUGUGUAAUCAGGGUAAUCCUCCACCGAAAAGAAGGGUUCGGAAGAA [Mat - Exclusion NG 2 - Mod of JL - D84] (Eterna round: R96, puzzle: Exclusion NG 2)	18.1	70.6	–	–	–	9.17
UUAUCCCAUGUGAGGAUAUUAUUUUAAAGAUGCAAUGAGAAGGUACAUGAGGAUCACCCAUGUCCGCGAAAUAU [Eternabot (L2) Solution 57] (Eterna round: R97, puzzle: Brourd's mod of Exclusion 4)	15.4	15.4	–	–	–	–
CUGAGCUGAGGAUAUACAUGAGGAUCACCCAUGUAAAGUAGCUUGCGUACAGGCAGAUGUAGAAGGCAGUUCGG [Mod of JL 2 - Jieux - Exclusion 3] (Eterna round: R97, puzzle: Exclusion 3)	34.7	20.5	–	–	–	–
